Target: thrombin (bovine (plasma), UniProt P00735;P00735 318-366;367-625)
Test: graphene oxide displacement fluorescence assay (NMM/G-quadruplex readout); graphene oxide, NMM; not given in the material (S incubated with GO for 30 min; NMM ex/em 399/610 nm)
Conditions: protein: commercial; copies: 1;1; label: none (label-free; NMM as G4 reporter); G-quadruplex (Se part)

AGTCCGTGGTAGGGCAGGTTGGGGTGACTGGGTAGGGCGGGTTGGG (structured_DNA) [S (thrombin aptamer Sa + G-quadruplex part Se)]
binding result: binds

— paper PMC6832557, “An Enzyme- and Label-Free Fluorescence Aptasensor for Detection of Thrombin Based on Graphene Oxide and G-Quadruplex”
